Reference: the supplement of paper PMC10567573
± gives the standard deviation.

Experiment: protein stability index of a GFP-peptide fusion (GPS, HEK-293T) (PSI 1-6); higher = more stable
[1] = treatment: DMSO, c terminus: a fixed tail appended
[2] = treatment: MLN4924 1 uM, 8 h, c terminus: a fixed tail appended
[3] = treatment: DMSO, c terminus: native
[4] = treatment: MLN4924 1 uM, 8 h, c terminus: native
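Note: 24-mer peptide tiles fused after GFP, lentivirally expressed, FACS-sorted into six equal bins by GFP/DsRed ratio, decoded by Illumina sequencing, PSI is the read-weighted mean bin number.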

Sequence	protein stability index [1]	protein stability index [2]	protein stability index [3]	protein stability index [4]
FHCSMSPGNLEKNRYGDVPCLDQT [PTPN9]	2.79 ± 0.51	2.82 ± 0.47	–	–
FHLDVEDYLSGVLILASELSRLSV [TSN]	3.06 ± 0.74	3.04 ± 0.48	–	–
FIQKRCNSLLEEETILHFFVQILL [NEK8]	2.41 ± 0.36	2.28 ± 0.47	–	–
FLFVLARVPAGIFKHTLSISRALL [MFSD9]	3.29 ± 0.23	2.81 ± 0.11	–	–
FLHLRTHTEERPYECNHCGKGFRH [ZNF8]	2.79 ± 0.34	2.97 ± 0.36	–	–
FLVAEWNEPSINFYKRRGASDLSS [SAT1]	2.32 ± 0.28	2.43 ± 0.45	–	–
FMYFLRGSLPWQGLKADTLKERYQ [CSNK1G1]	2.43 ± 0.35	2.26 ± 0.17	–	–
FNGLTLLLMAVVSMFTLPVVYVKH [RTN1]	3.3 ± 0.28	3 ± 0.41	–	–
FPESETKECPFRVNKVCGAACSSK [SERPINB5]	2.8 ± 0.56	3.55 ± 0.66	–	–
FPKQILDQNNVIENEETGEFSIDN [MIA2]	5.136 ± 0.027	5.06 ± 0.24	–	–
FPRDHTSLALVQNGDVSAPSAILR [ANKRD40]	3.72 ± 0.34	3.97 ± 0.2	–	–
FRNAASTLTERPCYNRRASKLTY [ANKRD40]	–	–	3.26 ± 0.21	3.16 ± 0.39
FRNPMMSKLRNYRKDLAKLHREVR [VTI1B]	2.37 ± 0.36	2.46 ± 0.24	–	–
FRSPSMPCSVIRPILKRLERPQDR [CDC25B]	3.64 ± 0.19	3.56 ± 0.2	–	–
FSDHTFRHYAYLRDSLSHLVPALR [INTS4]	2.27 ± 0.18	2.36 ± 0.2	–	–
FSFMYILVGLTVIGAFLNLVVLRF [KCNK9]	3.18 ± 0.13	3.25 ± 0.31	–	–
FSFSMKGHEKTAKSKTRSLLKRME [DLC1]	2.84 ± 0.24	3.06 ± 0.23	–	–
FSHSGRYIMTRDYLTVKVWDLNME [PPP2R2B]	2.63 ± 0.49	2.3 ± 0.38	–	–
FSTDAFSSPPQGASPVPESSLTAD [SNAP91]	3.65 ± 0.57	4.25 ± 0.43	–	–
FTCDLQHTETGEEVLRMCVAVKKK [VPS39]	2.84 ± 0.3	2.96 ± 0.4	–	–
FTEKLWPLFYPGIRAGRKNAAPLT [TRIM39]	2.59 ± 0.74	2.25 ± 0.16	–	–
FTFLQPLPLSPGVLSSTPDHSFSL [ATF4]	2.2 ± 0.33	2.19 ± 0.33	–	–
FTGKAEMGGPFSYVYFFCTVPEIL [TMEM106C]	2.72 ± 0.59	2.16 ± 0.87	–	–

Sequence	protein stability index [1]	protein stability index [2]	protein stability index [3]	protein stability index [4]
FTKVVQPQEEIATKKLRLTKPSKS [INTS4]	3.92 ± 0.57	4.07 ± 0.3	–	–
FTMFLNLFGEKLSGTDAEETILNA [MYL5]	2.12 ± 0.37	2.21 ± 0.2	–	–
GADPKSVVCAFFKQGQCTKGDKCK [ZC3H15]	3.82 ± 0.14	4.28 ± 0.37	–	–
GAFRKGKSFILDFMLRYLYSQKES [ATL3]	2.3 ± 0.42	2.22 ± 0.49	–	–
GAQVNMPADSFESPLTLAACGGHV [ANKRD17]	4.23 ± 0.23	4.24 ± 0.12	–	–
GASTSCLLPVQVVTEHPLELIRVE [PCDHGC5]	3.12 ± 0.62	3.29 ± 0.37	–	–
GDPEEPLTGFSWRGGSDPETTGIQ [ATL3]	5.13 ± 0.22	5.17 ± 0.12	–	–
GDVLLDETLKHIKATEPTETVQTW [GOLPH3L]	4.41 ± 0.27	4.45 ± 0.26	–	–
GDWIGLYRHFLKSPNFDGWFKTRR [DENND6A]	2.82 ± 0.038	2.49 ± 0.49	–	–
GEDRAGPQSPSPGAPPAAKPARG [TSPAN10]	–	–	5.32 ± 0.27	5.13 ± 0.12
GEGNSSQNSRNKRAVQGPEETVTQ [TNFSF13B]	5.51 ± 0.2	5.47 ± 0.096	–	–
GEKPYECVQCGKSYSQSSNLFRHQ [ZNF24]	2.4 ± 0.62	2.83 ± 0.56	–	–
GELPNHPKPAGGAIPTKKSLPSPS [FBF1]	5.2 ± 0.25	5.25 ± 0.16	–	–
GFSPIIGRFCGQQNPPVIKSSGRF [NETO1]	2.42 ± 0.29	2.52 ± 0.75	–	–
GGGSNNGKTPVCHQCHKVIRGRYL [PDLIM7]	2.81 ± 0.52	3.07 ± 0.42	–	–
GGIKTVDMRDPTYRPLKQELQGLD [SPSB1]	4.18 ± 0.37	4.33 ± 0.27	–	–
GGNDLCVWNRKLDLLCKTSHLSDT [WDR41]	3.16 ± 0.39	3.05 ± 0.18	–	–
GGTLAEFIQKRCNSLLEEETILHF [NEK8]	1.97 ± 0.24	1.99 ± 0.43	–	–
GHEGSVSSCHFARDSSFLISGGFD [WDR88]	2.98 ± 0.33	3.1 ± 0.13	–	–
GHHLLKWIIKSNYQGLPVRCVKSI [SRPK2]	2.2 ± 0.56	2.33 ± 0.34	–	–
GHMDDGGYSMNFNMSSSRGPLPVK [RBMX]	4.05 ± 0.21	3.95 ± 0.24	–	–
GHSTDAREMSKTFIIGELHPDDRP [CYB5A]	4.38 ± 0.15	4.66 ± 0.16	–	–
GIQPGQEPPVTMIFMGYQNVEDEA [PALM]	3.94 ± 0.35	4.02 ± 0.24	–	–

Sequence	protein stability index [1]	protein stability index [2]	protein stability index [3]	protein stability index [4]
GKSGLRVSCLGLGTWVTFGGQITD [KCNAB2]	2.2 ± 0.61	2.04 ± 0.64	–	–
GKWQQQGDLQDTKENREEARFQDK [CHGB]	5.44 ± 0.36	5.33 ± 0.16	–	–
GLEAASVYSDHTNTNNLTFLMDLP [RNF180]	3.13 ± 0.26	3.22 ± 0.3	–	–
GLLQYGSTVKNEFSLKTFKRKSEV [MATN2]	3.02 ± 0.25	3.07 ± 0.35	–	–
GLPRSRDCRVDLGSEVYRMLREPA [PDLIM4]	3.08 ± 0.15	3.39 ± 0.2	–	–
GLSAPARCLVRCLLRREPAERLTA [TRIB3]	2.33 ± 0.12	2.16 ± 0.32	–	–
GLSDRAKEAKEFLVQLRNMVQQIQ [TRIM9]	2.17 ± 0.56	2.2 ± 0.23	–	–
GMFTFLSSVTAAVSGLLVGYELGI [SLC2A12]	2.891 ± 0.011	2.75 ± 0.86	–	–
GMSLAKELIFSARVLDGKEAKAVG [AUH]	3.45 ± 0.13	3.48 ± 0.17	–	–
GNTIALFFRSLLPNYTMEGERPEE [TCF25]	2.17 ± 0.62	2.72 ± 0.21	–	–
GPGFHAGTSALWRHLRSAHRRELE [ZBED3]	2.73 ± 0.34	3.13 ± 0.53	–	–
GPGYWMCCHRSQKGFPGCKLGLHD [FBXO34]	2.21 ± 0.44	2.11 ± 0.56	–	–
GPQPTMEGDVLDTLEALGYKGPLL [FAM98B]	4.18 ± 0.32	4.07 ± 0.38	–	–
GPSRPAEKPPRPEAKSAQPADGWK [GCH1]	5.17 ± 0.082	5.16 ± 0.18	–	–
GPSTPSPVAAQFTSEGTTLSGVDL [FCHO1]	5.2 ± 0.4	4.96 ± 0.53	–	–
GQCQVLVQRSPWLMMRMGILGRGL [TCAP]	2.2 ± 0.14	2.14 ± 0.16	–	–
GQRGNTESKTDGDDTETVPSEQSH [TCF25]	5.58 ± 0.21	5.54 ± 0.23	–	–
GQRQPPPSEPTQGPEIVPRGAGP [DNAJC4]	–	–	5.28 ± 0.51	5.49 ± 0.2
GRCATRAFHRKSHSLDLNISEKLT [RNF180]	3.73 ± 0.43	3.63 ± 0.42	–	–
GRGVKKRLVLCMELANGKPQTRSG [ADAMTSL2]	2.19 ± 0.56	–	–	–
GRLEGLIQPDDLINQLTFIMDANQ [FAF2]	2.8 ± 0.2	2.77 ± 0.5	–	–
GRQPCGRFLRAYREGALRAALQRS [TRADD]	2.56 ± 0.15	2.45 ± 0.4	–	–
GRRVNAKMPVYSGSRPACQLQVPT [ELOA2]	3.11 ± 0.32	3.49 ± 0.44	–	–

Sequence	protein stability index [1]	protein stability index [2]	protein stability index [3]	protein stability index [4]
GSIPGFLISSGMSSHKQGHTSSEY [TAF7L]	3.25 ± 0.23	3.29 ± 0.29	–	–
GSKFRYSGRTQAQTRRASALIDRP [EPB41L3]	3.35 ± 0.41	3.44 ± 0.27	–	–
GSQRARVVNTDHGSPEQLQIPVTD [SDE2]	5.06 ± 0.22	4.98 ± 0.34	–	–
GSRMMAVAALVVNFSQPVAGRPSL [NLN]	3.1 ± 0.68	2.56 ± 1.2	–	–
GTDIVRGCDPLVKPVGRQACDLQP [ADAMTSL2]	4.08 ± 0.22	4.22 ± 0.059	–	–
GTEFMQDPDEEHLKKSSQVPRTEA [PDLIM7]	5.47 ± 0.12	5.23 ± 0.26	–	–
GTHPEDHQGHSDQHHHHHHHHHGR [RHOBTB2]	4.9 ± 0.16	5.01 ± 0.26	–	–
GTIHALIFAWNKWIDIKQFVWYTP [STEAP1]	3.28 ± 0.26	2.18 ± 0.11	–	–
GTVPGQAPRLAVAVPAVTSADSQF [LYSMD4]	4.46 ± 0.28	4.55 ± 0.17	–	–
GVGKSAMTMQFISHRFPEDHDPTI [RIT1]	3.4 ± 0.24	3.46 ± 0.37	–	–
GVITTTPTPPGQYFYPRGGGSGGG [JUNB]	4.14 ± 0.16	4.26 ± 0.095	–	–
GVKLEGKVPMHKLFLEMLEAMMD [ESRRA]	–	–	2.58 ± 0.74	2.66 ± 0.69
GVLILFLTFFAFLHCWLNAFAEML [SOAT1]	2.88 ± 0.4	2.85 ± 0.36	–	–
GWLQHDFGHLSVFSTSKWNHLLHH [FADS1]	2.04 ± 0.44	2.19 ± 0.29	–	–
GWLSVSDDLTSVTNHGYRVQVENP [TRIM35]	3.12 ± 0.17	3.24 ± 0.18	–	–
GYAVNVFDIQQGFDNPQVRFFLGD [NSDHL]	2.36 ± 0.38	2.57 ± 1.4	–	–
GYELGIISGALLQIKTLLALSCHE [SLC2A12]	3.61 ± 0.26	3.71 ± 0.1	–	–
GYGGGLGAGFGGGLGAGFGGGFAG [KRT16]	2.65 ± 0.38	2.47 ± 0.28	–	–
GYQMLGNVVTIGLAFFPFLHRLFR [PHTF1]	3.71 ± 0.23	3.68 ± 0.34	–	–
HAASDPSSSSGRLSEPDPSHTLEE [SMOC2]	5.31 ± 0.29	5.43 ± 0.15	–	–
